In this assay the target is γ-tubulin ring complex (γTuRC), purified (human (endogenous in HEK293T), UniProt P23258 1-451; Q9BSJ2 1-902; Q96CW5 1-907; Q9UGJ1 1-667; Q96RT8 1-1024; Q96RT7 …). Put plainly: cell-based or functional assay.

B1: recombinant FLAG-PolD1 (wild type), purified (natural protein, human, UniProt P28340 1-1107, looked up)
chain: MDGKRRPGPGPGVPPKRARGGLWDDDDAPRPSQFEEDLALMEEMEAEHRLQEQEEEELQSVLEGVADGQVPPSAIDPRWLRPTPPALDPQTEPLIFQQLEIDHYVGPAQPVPGGPPPSRGSVPVLRAFGVTDEGFSVCCHIHGFAPYFYTPAPPGFGPEHMGDLQRELNLAISRDSRGGRELTGPAVLAVELCSRESMFGYHGHGPSPFLRITVALPRLVAPARRLLEQGIRVAGLGTPSFAPYEANVDFEIRFMVDTDIVGCNWLELPAGKYALRLKEKATQCQLEADVLWSDVVSHPPEGPWQRIAPLRVLSFDIECAGRKGIFPEPERDPVIQICSLGLRWGEPEPFLRLALTLRPCAPILGAKVQSYEKEEDLLQAWSTFIRIMDPDVITGYNIQNFDLPYLISRAQTLKVQTFPFLGRVAGLCSNIRDSSFQSKQTGRRDTKVVSMVGRVQMDMLQVLLREYKLRSYTLNAVSFHFLGEQKEDVQHSIITDLQNGNDQTRRRLAVYCLKDAYLPLRLLERLMVLVNAVEMARVTGVPLSYLLSRGQQVKVVSQLLRQAMHEGLLMPVVKSEGGEDYTGATVIEPLKGYYDVPIATLDFSSLYPSIMMAHNLCYTTLLRPGTAQKLGLTEDQFIRTPTGDEFVKTSVRKGLLPQILENLLSARKRAKAELAKETDPLRRQVLDGRQLALKVSANSVYGFTGAQVGKLPCLEISQSVTGFGRQMIEKTKQLVESKYTVENGYSTSAKVVYGDTDSVMCRFGVSSVAEAMALGREAADWVSGHFPSPIRLEFEKVYFPYLLISKKRYAGLLFSSRPDAHDRMDCKGLEAVRRDNCPLVANLVTASLRRLLIDRDPEGAVAHAQDVISDLLCNRIDISQLVITKELTRAASDYAGKQAHVELAERMRKRDPGSAPSLGDRVPYVIISAAKGVAAYMKSEDPLFVLEHSLPIDTQYYLEQQLAKPLLRIFEPILGEGRAEAVLLRGDHTRCKTVLTGKVGGLLAFAKRRNCCIGCRTVLSHQGAVCEFCQPRESELYQKEVSHLNALEERFSRLWTQCQRCQGSLHEDVICTSRDCPIFYMRKKVRKDLEDQEQLLRRFGPPGPEAW
As to B1, the “IC50 of inhibition of in vitro microtubule nucleation by purified γTuRCs reconstituted with CDK5RAP2(51–200) (28 nM); PolD1 at various concentrations” value amounted to 98 nM.

The values above are taken from PMC5601897, “The catalytic subunit of DNA polymerase δ inhibits γTuRC activity and regulates Golgi-derived microtubules” (Nature Communications, 2017).
